Experimental data from patent publication US20210130436A1 (published 2021).

What was measured:
[1] = target: T1, CD28 endogenously expressed on Jurkat/IL2 reporter cells (human, UniProt P10747 19-220); experiment: flow cytometry, Jurkat cells (CD28)
T1 construct: also called Jurkats (CD28)

[2] = target: T2, human PD-L1, full-length, on CHO cells (human, UniProt Q9NZQ7 19-290); experiment: flow cytometry; PD-L1 MFI over CD28 MFI
T2 construct: also called huPD-L1; CD274

[3] = target: T3, human CTLA4 (CTLA-4), full-length, on CHO cells (human, UniProt P16410 36-223); experiment: flow cytometry, CHO cells stably expressing CTLA4
T3 construct: also called huCTLA4

[4] = target: T2, human PD-L1, full-length, on CHO cells; experiment: flow cytometry, CHO cells stably expressing PD-L1
[5] = target: T3, human CTLA4 (CTLA-4), full-length, on …; experiment: flow cytometry, CHO/CTLA4 cells; MFI relative to WT CD80 ECD-Fc
[6] = target: T2, human PD-L1, full-length, on CHO cells; experiment: flow cytometry, CHO/PD-L1 cells; MFI relative to WT CD80 ECD-Fc
[7] = target: T1, CD28 endogenously expressed on …; experiment: flow cytometry, Jurkat cells (CD28); MFI relative to WT CD80 ECD-Fc

T3 sequence (P16410 36-223): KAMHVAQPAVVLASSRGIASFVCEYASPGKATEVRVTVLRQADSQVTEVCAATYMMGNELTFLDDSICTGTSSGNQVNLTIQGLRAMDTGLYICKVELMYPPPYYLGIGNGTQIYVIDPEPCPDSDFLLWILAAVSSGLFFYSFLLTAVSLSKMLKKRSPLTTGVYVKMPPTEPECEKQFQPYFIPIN
T2 sequence (Q9NZQ7 19-290): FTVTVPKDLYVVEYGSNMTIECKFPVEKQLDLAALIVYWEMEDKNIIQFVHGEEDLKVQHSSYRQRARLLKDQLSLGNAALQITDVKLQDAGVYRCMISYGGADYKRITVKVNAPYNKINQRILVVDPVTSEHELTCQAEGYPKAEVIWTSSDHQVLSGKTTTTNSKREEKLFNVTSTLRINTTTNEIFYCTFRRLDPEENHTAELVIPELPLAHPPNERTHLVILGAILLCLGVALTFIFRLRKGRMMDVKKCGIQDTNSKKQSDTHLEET

MFI at 33.3 nM [1] | Ratio of PDL1:CD28 [2] | MFI at 33.3 nM [3] | MFI at 33.3 nM [4] | Fold change to WT CD80 [5] | Fold change to WT CD80 [6] | Fold change to WT CD80 [7] | Binder
76.2 MFI | 78.4 ratio | 42800 MFI | 5970 MFI | 1.1 fold | 46.6 fold | 0.1 fold | variant CD80 IgV-Fc E35D/V68M/L85Q (Fc fusion, not shown: small tags and cut ends; a dimerising Fc or GST) VIHVTKEVKEVATLSCGHNVSVEELAQTRIYWQKDKKMVLTMMSGDMNIWPEYKNRTIFDITNNLSIMILALRPSDEGTYECVVQKYEKDAFKREHLAEVTLSVKAD
328 MFI | 13.1 ratio | 7280 MFI | 4290 MFI | 0.2 fold | 33.5 fold | 0.5 fold | variant CD80 IgV-Fc M47V/V68M (Fc fusion, not shown: small tags and cut ends; a dimerising Fc or GST) VIHVTKEVKEVATLSCGHNVSVEELAQTRIYWQKEKKMVLTMMSGDVNIWPEYKNRTIFDITNNLSIMILALRPSDEGTYECVVLKYEKDAFKREHLAEVTLSVKAD
413 MFI | 7.5 ratio | 44600 MFI | 3080 MFI | 1.1 fold | 24.1 fold | 0.6 fold | variant CD80 IgV-Fc M47V/N48K (Fc fusion, not shown: small tags and cut ends; a dimerising Fc or GST) VIHVTKEVKEVATLSCGHNVSVEELAQTRIYWQKEKKMVLTMMSGDVKIWPEYKNRTIFDITNNLSIVILALRPSDEGTYECVVLKYEKDAFKREHLAEVTLSVKAD
56.3 MFI | 0.9 ratio | 944 MFI | 52.8 MFI | 0 fold | 0.4 fold | 0.1 fold | variant CD80 IgV-Fc K89N (Fc fusion, not shown: small tags and cut ends; a dimerising Fc or GST) VIHVTKEVKEVATLSCGHNVSVEELAQTRIYWQKEKKMVLTMMSGDMNIWPEYKNRTIFDITNNLSIVILALRPSDEGTYECVVLKYENDAFKREHLAEVTLSVKAD
60.1 MFI | 8 ratio | 4950 MFI | 481 MFI | 0.1 fold | 3.8 fold | 0.1 fold | variant CD80 IgV-Fc N48K (Fc fusion, not shown: small tags and cut ends; a dimerising Fc or GST) VIHVTKEVKEVATLSCGHNVSVEELAQTRIYWQKEKKMVLTMMSGDMKIWPEYKNRTIFDITNNLSIVILALRPSDEGTYECVVLKYEKDAFKREHLAEVTLSVKAD
60.9 MFI | 66.3 ratio | 11100 MFI | 4040 MFI | 0.3 fold | 31.6 fold | 0.1 fold | variant CD80 IgV-Fc M47L/V68M/L85Q (Fc fusion, not shown: small tags and cut ends; a dimerising Fc or GST) VIHVTKEVKEVATLSCGHNVSVEELAQTRIYWQKEKKMVLTMMSGDLNIWPEYKNRTIFDITNNLSIMILALRPSDEGTYECVVQKYEKDAFKREHLAEVTLSVKAD
68.7 MFI | 33.7 ratio | 33300 MFI | 2320 MFI | 0.8 fold | 18.1 fold | 0.1 fold | variant CD80 IgV-Fc M47V (Fc fusion, not shown: small tags and cut ends; a dimerising Fc or GST) VIHVTKEVKEVATLSCGHNVSVEELAQTRIYWQKEKKMVLTMMSGDVNIWPEYKNRTIFDITNNLSIVILALRPSDEGTYECVVLKYEKDAFKREHLAEVTLSVKAD
197 MFI | 3.2 ratio | 32400 MFI | 622 MFI | 0.8 fold | 4.9 fold | 0.3 fold | variant CD80 IgV-Fc M47V/K89N (Fc fusion, not shown: small tags and cut ends; a dimerising Fc or GST) VIHVTKEVKEVATLSCGHNVSVEELAQTRIYWQKEKKMVLTMMSGDVNIWPEYKNRTIFDITNNLSIVILALRPSDEGTYECVVLKYENDAFKREHLAEVTLSVKAD
